Consider one protein from publication PMC8137924, “Structural basis for allosteric regulation of Human Topoisomerase IIα” (Nature Communications, 2021).

The data set concerns the molecule itself. Description: cryo-EM structure; hTopo IIα with 30 bp doubly nicked DNA (1:1, 20 µM), 0.5 mM etoposide, 0.5 mM ADPNP, cross-linked with 1 mM BS3; 20 mM Hepes, 100 mM KAc, 50 mM Na-glutamate, 5 mM MgAc2, 0.5 mM TCEP, pH 7.5, 8 mM CHAPSO; single-particle analysis, State 1 (closed) and State 2 (pre-open).

B1: full-length human Topo IIα (1–1531) (enzyme, UniProt P11388 1-1531, looked up)
chain: MEVSPLQPVNENMQVNKIKKNEDAKKRLSVERIYQKKTQLEHILLRPDTYIGSVELVTQQMWVYDEDVGINYREVTFVPGLYKIFDEILVNAADNKQRDPKMSCIRVTIDPENNLISIWNNGKGIPVVEHKVEKMYVPALIFGQLLTSSNYDDDEKKVTGGRNGYGAKLCNIFSTKFTVETASREYKKMFKQTWMDNMGRAGEMELKPFNGEDYTCITFQPDLSKFKMQSLDKDIVALMVRRAYDIAGSTKDVKVFLNGNKLPVKGFRSYVDMYLKDKLDETGNSLKVIHEQVNHRWEVCLTMSEKGFQQISFVNSIATSKGGRHVDYVADQIVTKLVDVVKKKNKGGVAVKAHQVKNHMWIFVNALIENPTFDSQTKENMTLQPKSFGSTCQLSEKFIKAAIGCGIVESILNWVKFKAQVQLNKKCSAVKHNRIKGIPKLDDANDAGGRNSTECTLILTEGDSAKTLAVSGLGVVGRDKYGVFPLRGKILNVREASHKQIMENAEINNIIKIVGLQYKKNYEDEDSLKTLRYGKIMIMTDQDQDGSHIKGLLINFIHHNWPSLLRHRFLEEFITPIVKVSKNKQEMAFYSLPEFEEWKSSTPNHKKWKVKYYKGLGTSTSKEAKEYFADMKRHRIQFKYSGPEDDAAISLAFSKKQIDDRKEWLTNFMEDRRQRKLLGLPEDYLYGQTTTYLTYNDFINKELILFSNSDNERSIPSMVDGLKPGQRKVLFTCFKRNDKREVKVAQLAGSVAEMSSYHHGEMSLMMTIINLAQNFVGSNNLNLLQPIGQFGTRLHGGKDSASPRYIFTMLSSLARLLFPPKDDHTLKFLYDDNQRVEPEWYIPIIPMVLINGAEGIGTGWSCKIPNFDVREIVNNIRRLMDGEEPLPMLPSYKNFKGTIEELAPNQYVISGEVAILNSTTIEISELPVRTWTQTYKEQVLEPMLNGTEKTPPLITDYREYHTDTTVKFVVKMTEEKLAEAERVGLHKVFKLQTSLTCNSMVLFDHVGCLKKYDTVLDILRDFFELRLKYYGLRKEWLLGMLGAESAKLNNQARFILEKIDGKIIIENKPKKELIKVLIQRGYDSDPVKAWKEAQQKVPDEEENEESDNEKETEKSDSVTDSGPTFNYLLDMPLWYLTKEKKDELCRLRNEKEQELDTLKRKSPSDLWKEDLATFIEELEAVEAKEKQDEQVGLPGKGGKAKGKKTQMAEVLPSPRGQRVIPRITIEMKAEAEKKNKKKIKNENTEGSPQEDGVELEGLKQRLEKKQKREPGTKTKKQTTLAFKPIKKGKKRNPWSDSESDRSSDESNFDVPPRETEPRRAATKTKFTMDLDSDEDFSDFDEKTDDEDFVPSDASPPKTKTSPKLSNKELKPQKSVVSDLEADDVKGSVPLSSSPPATHFPDETEITNPVPKKNVTVKKTAAKSQSSTSTTGAKKRAAPKGTKRDPALNSGVSQKPDPAKTKNRRKRKPSTSDDSDSNFEKIVSKAVTSKKSKGESDDFHMDFDSAVAPRAKSVRAKKPIKYLEESDEDDLF
notes: human DNA topoisomerase IIα (TOP2A gene), full length, residues 1-1531; Homodimer; Tags were removed with P3C (PreScission) protease; also called hTopo IIα; human topoisomerase IIα isoform; source: BHK21 C13-2P cells infected with recombinant MVA-T7 virus, purified (Ni chelating resin, StrepTrap, heparin); not shown: Twin-strep, N-terminal, cleaved; His10, C-terminal, cleaved
For B1, the binding result is given as “binds”.
